As a reminder, the pKd is the Kd on a negative log10 scale, so that one unit is a factor of ten. A word on the pIC50: it is the IC50 on a negative log10 scale, so that one unit is a factor of ten. A higher pIC50 goes with a low IC50.

From the Immune Epitope Database (IEDB) come the findings set out here.

The target in test [1] is HLA-B*39:01. Kind of test: IEDB peptide-MHC binding, purified MHC/direct/fluorescence; filed as Kd, often an IC50 or EC50 that approximates it; ≥ and ≤ were set here for values at or beyond the usual limits of such assays. To be noted: source organism: Camelpox virus M-96.
Test [2] deals with HLA-A*68:02. Put plainly: IEDB peptide-MHC binding, purified MHC/competitive/fluorescence; filed as Kd, often an IC50 or EC50 that approximates it; ≥ and ≤ were set here for values at or beyond the usual limits of such assays. To be noted: source organism: Human immunodeficiency virus 1.
The target in test [3] is HLA-A*02:03. The description is as above. To be noted: source organism: Human immunodeficiency virus 1.
For test [4], the target named is HLA-A*02:11. Put plainly: IEDB peptide-MHC binding, purified MHC/direct/fluorescence; filed as Kd, often an IC50 or EC50 that approximates it; ≥ and ≤ were set here for values at or beyond the usual limits of such assays.
In test [5] the target is HLA-A*68:02. The description is as above.
Test [6] deals with HLA-A*03:01. Described as above.
For test [7], the target named is HLA-A*23:01. The test is described as above.
Test [8] addresses HLA-A*02:16. Described as above.
The target of test [9] is HLA-A*24:03. Described as above.
Test [10] addresses HLA-A*02:12. The description is as above.
For test [11], the target named is HLA-A*01:01. The description is as above.
In test [12] the target is HLA-A*02:19. The test is described as above.
In test [13] the target is HLA-A*02:03. The description is as above.
The target in test [14] is HLA-A*69:01. Put plainly: IEDB peptide-MHC binding, purified MHC/competitive/fluorescence; filed as Kd, often an IC50 or EC50 that approximates it; ≥ and ≤ were set here for values at or beyond the usual limits of such assays.
Test [15] addresses HLA-B*46:01. The test is described as above.
For test [16], the target named is HLA-B*15:17. The test is described as above.
In test [17] the target is HLA-B*15:01. The description is as above.
Test [18] deals with HLA-B*18:01. The test is described as above.
Test [19] deals with HLA-B*39:01. The test is described as above.
Test [20] concerns the target HLA-B*27:03. The test is described as above.
The target of test [21] is HLA-B*57:01. Described as above.
Test [22] addresses HLA-A*26:01. The test is described as above.
In test [23] the target is HLA-B*51:01. The description is as above.
The target in test [24] is HLA-A*02:01. Described as above.
The target in test [25] is HLA-A*26:02. Described as above. To be noted: source organism: Human immunodeficiency virus 1.
Test [26] deals with HLA-A*29:02. Put plainly: IEDB peptide-MHC binding, purified MHC/direct/fluorescence; filed as Kd, often an IC50 or EC50 that approximates it; ≥ and ≤ were set here for values at or beyond the usual limits of such assays.
For test [27], the target named is HLA-A*02:01. Described as above. The conditions noted are these: source organism: Sudan ebolavirus - Maleo (1979).
Test [28] deals with HLA-B*15:01. Described as above. To be noted: source organism: Ebola virus - Eckron (Zaire, 1976).
For test [29], the target named is HLA-B*15:01. Kind of test: IEDB peptide-MHC binding, purified MHC/competitive/fluorescence; ≥ and ≤ were set here for values at or beyond the usual limits of such assays. To be noted: source organism: Sudan ebolavirus.
For test [30], the target named is HLA-A*24:02. Described as above. To be noted: source organism: Sudan ebolavirus.
Test [31] deals with HLA-B*51:01. Kind of test: IEDB peptide-MHC binding, purified MHC/direct/fluorescence; filed as Kd, often an IC50 or EC50 that approximates it; ≥ and ≤ were set here for values at or beyond the usual limits of such assays. The conditions noted are these: source organism: Homo sapiens.
Setting [32] is: source organism: Reston ebolavirus.
Where [33] appears, read: source organism: Human immunodeficiency virus 1.
Where [34] appears, read: source organism: Zaire ebolavirus.
Where [35] appears, read: source organism: Ravn virus - Ravn, Kenya, 1987.

pIC50, pKd: −log10 of the molar value. Bounds are passed on as bounds.

In turn, HHDPILNGL gave a pKd in test [1] of 7.37.
In the case of EELKSLFNTI, the results for the pKd in test [2] and in test [3] were 5.93 and 5.81, respectively.
For TTDDSTSYY, the pKd in test [4] (setting [32]), in [5] (setting [32]), in test [6] (setting [32]), in test [7] (setting [32]), in test [8] (setting [32]) and in [9] (setting [32]) was at most 4.70 in each case. Besides, the pKd in test [10] (setting [32]) is at most 4.70; in test [11] (source organism: Reston ebolavirus - Reston) it was 7.91; in test [12] (setting [32]), at most 4.70; in [13] (setting [32]) it was at most 4.70; in [14] (setting [32]) it was at most 4.70; in [15] (setting [32]), at most 4.70. The pKd in [16] (setting [32]), in test [17] (setting [32]), in [18] (setting [32]), in test [19] (setting [32]), in [20] (setting [32]) and in [21] (setting [32]) was at most 4.70 in each case. Besides, the pKd in [22] (setting [32]), in [23] (setting [32]) and in [24] (setting [32]) was at most 4.70 in each case.
With DIKDTKEAL, the pKd was 5.77 in [2], at most 4.70 in test [25], at most 4.70 in [19] (setting [33]) and at most 4.70 in test [24] (setting [33]).
Take SMHYKLDEV: the pKd in test [6] (setting [34]) was at most 4.70; in test [7] (setting [34]), at most 4.70; in [9] (setting [34]) it was at most 4.70; in test [26] (setting [34]), at most 4.70; in [27] it was 7.82; in [14] (setting [34]), at most 4.70. Moreover, the pKd in test [15] (setting [34]), in [16] (setting [34]), in test [17] (setting [34]), in test [18] (setting [34]), in test [19] (setting [34]) and in test [20] (setting [34]) was at most 4.70 throughout. Moreover, the pKd in test [21] (setting [34]), in test [22] (setting [34]) and in test [23] (setting [34]) was at most 4.70 in each case.
For ILNRKAIDF, the pKd in test [4] (setting [34]) was at most 4.70; in test [5] (setting [34]) it was at most 4.70; in test [28] it was 6.43; in test [6] (setting [34]), at most 4.70; in test [7] (setting [34]) it was at most 4.70; in test [8] (setting [34]), at most 4.70. The pKd in test [9] (setting [34]), in [10] (setting [34]), in test [26] (setting [34]), in [12] (setting [34]), in [13] (setting [34]) and in [14] (setting [34]) was at most 4.70 each time. Moreover, the pKd in test [15] (setting [34]), in test [16] (setting [34]), in test [18] (setting [34]), in test [19] (setting [34]), in test [20] (setting [34]) and in [21] (setting [34]) was at most 4.70 in each case. The pKd in [22] (setting [34]), in [23] (setting [34]) and in [24] (setting [34]) was at most 4.70 in each case. For the same sequence, the pIC50 in test [29] was 4.90; in test [30], 5.48.
YPGFGEHLI had a pKd in test [31] of 5.72.
As for DLEKYNLAF, the pKd in test [4] (setting [35]), in test [5] (setting [35]), in test [6] (setting [35]), in test [7] (setting [35]), in [8] (setting [35]) and in test [9] (setting [35]) was at most 4.70 throughout. Moreover, the pKd in test [10] (setting [35]), in test [26] (setting [35]), in test [11] (setting [34]), in test [12] (setting [35]), in test [13] (setting [35]) and in test [14] (setting [34]) was at most 4.70 in each case. The pKd in test [15] (setting [34]), in test [16] (setting [34]), in test [17] (setting [34]), in [18] (setting [34]), in [19] (setting [34]) and in test [20] (setting [34]) was at most 4.70 each time. Also, the pKd in test [21] (setting [34]), in test [22] (setting [34]), in test [23] (setting [34]) and in [24] (setting [34]) was at most 4.70 each time.
